Data reported in FireProtDB (doi:10.1016/j.bpc.2006.10.013).

B1: Rubredoxin, P00268 (parent)
chain: MKKYTCTVCGYIYNPEDGDPDNGVNPGTDFKDIPDDWVCPLCGVGKDQFEEVEE
B2: Rubredoxin, P24297 (parent)
chain: MAKWVCKICGYIYDEDAGDPDNGISPGTKFEELPDDWVCPICGAPKSEFEKLED

What was measured:
[1] = variants of: B1; settings: Clostridium pasteurianum, pH 9.08, Thermal, NMR, Sodium borate 100 mM, reversible: Yes, structure 1IRO, whole UniProt chain shown
[2] = variants of: B2; settings: Pyrococcus furiosus (strain ATCC 43587 / DSM 3638 / JCM 8422 / Vc1), pH 9.08, Thermal, NMR, Sodium borate 100 mM, reversible: Yes, structure 1BRF, whole UniProt chain shown

| Variant | ddG of mutation (higher = less stable) ([1]; 107 °C) [kcal/mol] | heat capacity change of unfolding ([1]; 107 °C) [kcal/mol/K] | Tm [1] [°C] | ddG of mutation (higher = less stable) [1] [kcal/mol] | heat capacity change of unfolding [1] [kcal/mol/K] | unfolding enthalpy (van 't Hoff) [1] [kcal/mol] | Tm [2] [°C] | heat capacity change of unfolding [2] [kcal/mol/K] | unfolding enthalpy (van 't Hoff) [2] [kcal/mol] | ddG of mutation (higher = less stable) ([2]; 133.6 °C) [kcal/mol] | heat capacity change of unfolding ([2]; 133.6 °C) [kcal/mol/K] |
| --- | --- | --- | --- | --- | --- | --- | --- | --- | --- | --- | --- |
| I33L | -0.76 | 0.5 | 112 | -0.76 | 0.5 | 64 | – | – | – | – | – |
| V24I | -0.36 | 0.5 | 110 | -0.36 | 0.5 | 59 | – | – | – | – | – |
| Y4W V24I I33L | – | – | 114 | – | 0.5 | 63 | – | – | – | – | – |
| V24I I33L | – | – | 115 | -1.31 | 0.5 | 65 | – | – | – | – | – |
| I24V L33I | – | – | – | – | – | – | 133 | 0.5 | 62 | – | – |
| L33I | – | – | – | – | – | – | – | – | – | 0.88 | 0.5 |
| I24V | – | – | – | – | – | – | 136 | 0.5 | 74 | – | 0.5 |
